Experimental data taken from US20160237160A1, “ANTI-TWEAKR ANTIBODIES AND USES THEREOF” (BAYER PHARMA AKTIENGESELLSCHAFT, priority 2013, published 2016).
Marks after values point to notes of the source that are not given here.

Legend:
SW480 cells = assay: Inhibition of proliferation (Cell Titer Glo); assay type: cell-based, human; details: 72h, 100 μg/ml antibody or *100 ng/ml TWEAK
Procedure: (§1) Therefore cells were plated in 96well plates in 750 assay medium (growth media from Table 21, plus 100 ng/ml IFN gamma for 786-O cells) at the following cell numbers: WiDr cells 3000 cells/well, 786-O cells 2500 cells/well. 24 h later cells were incubated with anti-TWEAKR antibodies (see Table 26), recombinant human TWEAK or isotype control IgG (not shown) at the indicated concentrations (antibodies from 0.03-300 μg/ml, TWEAK 100 or 300 ng/ml). At the time of antibody addition cell viability was determined in sister plates (time point zero): therefore 750/well CTG solution (Promega Cell Titer Glo solution (catalog # G755B and G756B) was added to the cells, incubated for 10 minutes and luminescence was read on a Victor V (Perkin Elmer). 96 h after incubation with the agents, cell viability was determined in the assay plates by addition of 100 μl/well CTG solution, 10 min incubation and reading of luminescence. Proliferation in control wells was calculated by subtracting time zero values from the luminescence values in the untreated control wells. % of cell proliferation was calculated in the compound treated wells as compared to the untreated control wells.
(§2) To evaluate, whether this strong anti-proliferative activity can also be observed in a broader cell panel, in addition LOVO, NCI-H1975, SW-480 (all 3000 cells/well), HT-29 (4000 cells/well), A253 and SK-OV3 (both 2500 cells/well) cells were incubated with 100 μg/ml anti-TWEAKR antibodies or TWEAK ligand for the time periods as indicated in Table 27. All cells were seeded in the growth media indicated in Table 21 and for all cells except for WiDr cells 100 ng/ml IFNgamma was added to the assay medium when seeding the cells. The percentage of growth inhibition for treated cells as compared to proliferation in untreated control cells was measured and calculated as described above. As shown in Table 27 the antibodies of the current invention are more efficacious as compared to other known antibodies in inhibiting proliferation of various cancer cell lines at 100 μg/ml. In most experiments the antibodies of the current invention also show equal or stronger efficacy as compared to 100-300 ng/ml TWEAK ligand. Thus, the antibodies described in this invention are unique in their activity to induce apoptosis and proliferation inhibition in a broad panel of cancer cell lines.

A253 cells [1] = assay: Inhibition of proliferation (Cell Titer Glo); assay type: cell-based, human; details: 72h, 100 μg/ml antibody or **300 ng/ml TWEAK
Procedure: as §1, §2

NCI-H1975 cells = assay: Inhibition of proliferation (Cell Titer Glo); assay type: cell-based, human; details: 72h, 100 μg/ml antibody or *100 ng/ml TWEAK
Procedure: as §1, §2

HT-29 cells [2] = assay: Inhibition of proliferation (Cell Titer Glo); assay type: cell-based, human; details: 24h, 100 μg/ml antibody or **300 ng/ml TWEAK
Procedure: as §1, §2

786-O cells [3] = assay: Inhibition of proliferation (Cell Titer Glo); assay type: cell-based, human; details: 96h, 100 μg/ml antibody or *100 ng/ml TWEAK
Procedure: as §1, §2

Lovo cells = assay: Inhibition of proliferation (Cell Titer Glo); assay type: cell-based, human; details: 72h, 100 μg/ml antibody or *100 ng/ml TWEAK
Procedure: as §1, §2

TWEAKR = TWEAKR (Homo sapiens, UniProt Q9NP84); details: published data; read-out: KD / binding affinity to TWEAKR (published); cited from earlier work
A253 cells [4] = assay: Caspase 3/7 activation; assay type: cell-based, human; details: 100 μg/ml antibody or 300 ng/ml TWEAK, 24 h, IFN gamma
Procedure: (§3) To determine the level of apoptosis induction, Caspase-3/7 activation was measured after treatment of cancer cells with TWEAK or agonistic anti-TWEAKR antibodies. Therefore HT-29 cells were plated at a density of 4000 cells/75 μl/well in 96 well plates in assay medium (DMEM/Ham's F12, Biochrom #FG4815+10% FCS+100 ng/ml IFN gamma (R&D Systems #285-IF)). 24 h later cells were incubated with antibodies to the TWEAKR (see Table 24), recombinant human TWEAK (R&D, #1090-TW-025/CF, E. coli derived recombinant soluble human TWEAK, Arg93-His249 of accession # Q4ACW9, Entrez Gene ID 8742, with an N-terminal Met and 6-His tag) or corresponding isotype control IgG at various concentrations as indicated. After 24 h incubation with the antibodies, Caspase 3/7 activity was determined by adding 100 μl/well Caspase 3/7 Solution (Promega, #G8093) to the cells, incubation for one hour and reading of luminescence on a VICTOR V (Perkin Elmer).
(§4) To determine whether the strong efficacy of the antibodies of the invention also holds true in other cell lines than HT-29, the capacity to induce Caspase 3/7 by anti-TWEAKR antibodies as compared to recombinant human TWEAK was evaluated in a panel of cell lines. For this analysis the following conditions were used: WiDr cells were plated at 3000 cells/well and incubated for 48 h in the presence of TWEAK or the described antibodies, A253 cells were plated at 2500 cells/well and incubated for 24 h, NCI-H322 cells were plated at 5000 cells/well and incubated for 48 h and 786-O cells were plated at 2500 cells/well and incubated for 48 h. The cells were plated in the media as described in Table 21, for A253, NCI-H322 and 786-O cells 100 ng/ml IFN gamma (R&D Systems #285-IF) was added. 24 h after plating antibodies at 100 μg/ml or TWEAK at 300 ng/ml (100 ng/ml TWEAK for NCI-H322 cells) were added and the cells were further incubated for the time periods indicated above. At the end of the incubation time Caspase 3/7 activity was determined as described for HT-29 cells. The fold induction of Caspase 3/7 was calculated as compared to untreated cells.

WiDr cells = assay: Caspase 3/7 activation; assay type: cell-based, human; details: 100 μg/ml antibody or 300 ng/ml TWEAK, 48 h
Procedure: as §3, §4

NCI-H322 cells = assay: Caspase 3/7 activation; assay type: cell-based, human; details: 100 μg/ml antibody or *100 ng/ml TWEAK, 48 h, IFN gamma
Procedure: as §3, §4

786-O cells [5] = assay: Caspase 3/7 activation; assay type: cell-based, human; details: 100 μg/ml antibody or 300 ng/ml TWEAK, 48 h, IFN gamma
Procedure: as §3, §4

HT-29 cells [6] = assay: Caspase 3/7 activation; assay type: cell-based, human; details: 100 μg/ml antibody or 300 ng/ml TWEAK, 24 h, IFN gamma
Procedure: as §3

B1: TWEAK: endogenous TWEAKR ligand; E. coli derived recombinant soluble human TWEAK, Arg93-His249 (R&D #1090-TW-025/CF) (protein, UniProt O43508 93-249, looked up, fragment)
chain: RSAPKGRKTRARRAIAAHYEVHPRPGQDGAQAGVDGTVSGWEEARINSSSPLRYNRQIGEFIVTRAGLYYLYCQVHFDEGKAVYLKLDLLVDGVLALRCLEEFSATAASSLGPQLRLCQVSGLLALRPGSSLRIRTLPWAHLKAAPFLTYFGLFQVH
% Inhibition of proliferation (SW480 cells): 0%* | % Inhibition of proliferation (A253 cells [1]): >100%** | % Inhibition of proliferation (NCI-H1975 cells): 56%* | % Inhibition of proliferation (HT-29 cells [2]): 98%** | % Inhibition of proliferation (786-O cells [3]): 12%* | % Inhibition of proliferation (Lovo cells): 53%* | Kd (TWEAKR): 0.8 to 2.4 nM | Fold induction of Caspase 3/7 (A253 cells [4]): 1.53 ± 0.13 | Fold induction of Caspase 3/7 (WiDr cells): 1.22 ± 0.02 | Fold induction of Caspase 3/7 (NCI-H322 cells): 1.39 ± 0.01 | Fold induction of Caspase 3/7 (786-O cells [5]): 1.45 ± 0.05 | Fold induction of Caspase 3/7 (HT-29 cells [6]): 2.31 ± 0.29
